Values of other authors in paper PMC5358871.

Target: Bfd (Pseudomonas aeruginosa) (UniProt Q9HY80)
Experiment: SPR, ITC

UniProt Q9HY80, sequence (Q9HY80 whole entry): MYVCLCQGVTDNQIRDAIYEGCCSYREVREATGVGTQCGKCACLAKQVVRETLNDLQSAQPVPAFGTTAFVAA

Which Kd does the source give for BfrB (from UniProt Q9HY79) here?
The Kd was 3000 nM.
